Experiments:
APC3265-AA = molecular target: T1, APC3265-AA; assay: two-hybrid library CCmax;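 note: natural log of median RNA to DNA barcode read ratio; higher means stronger binding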
T1 chain: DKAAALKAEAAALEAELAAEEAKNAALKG

APC3323-AA = molecular target: T2, APC3323-AA; assay: two-hybrid library CCmax; settings: mean of both orientations;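 note: natural log of median RNA to DNA barcode read ratio; higher means stronger binding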
T2 chain: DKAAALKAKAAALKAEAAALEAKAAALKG

APC3354-AA = molecular target: T3, APC3354-AA; assay: two-hybrid library CCmax; settings: mean of both orientations;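 note: natural log of median RNA to DNA barcode read ratio; higher means stronger binding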
T3 chain: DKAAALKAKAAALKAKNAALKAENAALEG

APC3881-AA = molecular target: T4, APC3881-AA; assay: two-hybrid library CCmax; settings: mean of both orientations;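 note: natural log of median RNA to DNA barcode read ratio; higher means stronger binding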
T4 chain: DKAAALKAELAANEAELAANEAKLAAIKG

APC4100-AA = molecular target: T5, APC4100-AA; assay: two-hybrid library CCmax; settings: mean of both orientations;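 note: natural log of median RNA to DNA barcode read ratio; higher means stronger binding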
T5 chain: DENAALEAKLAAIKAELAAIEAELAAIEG

APC4336-AA = molecular target: T6, APC4336-AA; assay: two-hybrid library CCmax; settings: mean of both orientations;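 note: natural log of median RNA to DNA barcode read ratio; higher means stronger binding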
T6 chain: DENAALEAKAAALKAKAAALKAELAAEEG

APC5009-AA = molecular target: T7, APC5009-AA; assay: two-hybrid library CCmax; settings: mean of both orientations
T7 chain: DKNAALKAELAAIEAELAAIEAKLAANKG

APC542-AA = molecular target: T8, APC542-AA; assay: two-hybrid library CCmax; settings: mean of both orientations
T8 chain: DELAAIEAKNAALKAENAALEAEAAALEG

APC5531-AA = molecular target: T9, APC5531-AA; assay: two-hybrid library CCmax; settings: mean of both orientations
T9 chain: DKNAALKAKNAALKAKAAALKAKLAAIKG

APC6088-AA = molecular target: T10, APC6088-AA; assay: two-hybrid library CCmax; settings: mean of both orientations
T10 chain: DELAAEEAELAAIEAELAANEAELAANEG

APC7524-AA = molecular target: T11, APC7524-AA; assay: two-hybrid library CCmax; settings: mean of both orientations
T11 chain: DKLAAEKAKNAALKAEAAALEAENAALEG

APC8401-AA = molecular target: T12, APC8401-AA; assay: two-hybrid library CCmax; settings: mean of both orientations
T12 chain: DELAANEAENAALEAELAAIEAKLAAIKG

APC8516-AA = molecular target: T13, APC8516-AA; assay: two-hybrid library CCmax; settings: mean of both orientations
T13 chain: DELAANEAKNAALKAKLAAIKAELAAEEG

APC9141-AA = molecular target: T14, APC9141-AA; assay: two-hybrid library CCmax; settings: mean of both orientations
T14 chain: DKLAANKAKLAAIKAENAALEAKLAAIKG

APC9182-AA = molecular target: T15, APC9182-AA; assay: two-hybrid library CCmax; settings: mean of both orientations
T15 chain: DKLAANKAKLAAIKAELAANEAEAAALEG

APC9291-AA = molecular target: T16, APC9291-AA; assay: two-hybrid library CCmax; settings: mean of both orientations
T16 chain: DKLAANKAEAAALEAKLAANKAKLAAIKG

APC9806-AA = molecular target: T17, APC9806-AA; assay: two-hybrid library CCmax; settings: mean of both orientations
T17 chain: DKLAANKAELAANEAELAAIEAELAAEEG

4H3381-AA = molecular target: T18, 4H3381-AA; assay: two-hybrid library CCmax
T18 chain: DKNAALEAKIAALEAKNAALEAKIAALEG

4H3395-AA = molecular target: T19, 4H3395-AA; assay: two-hybrid library CCmax; settings: mean of both orientations
T19 chain: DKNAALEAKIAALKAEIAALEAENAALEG

4H3410-AA = molecular target: T20, 4H3410-AA; assay: two-hybrid library CCmax; settings: mean of both orientations
T20 chain: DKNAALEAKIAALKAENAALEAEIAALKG

4H347-AA = molecular target: T21, 4H347-AA; assay: two-hybrid library CCmax; settings: mean of both orientations
T21 chain: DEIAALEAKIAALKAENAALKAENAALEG

4H3493-AA = molecular target: T22, 4H3493-AA; assay: two-hybrid library CCmax; settings: mean of both orientations
T22 chain: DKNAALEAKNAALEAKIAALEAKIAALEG

4H3590-AA = molecular target: T23, 4H3590-AA; assay: two-hybrid library CCmax; settings: mean of both orientations
T23 chain: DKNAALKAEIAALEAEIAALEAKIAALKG

4H3697-AA = molecular target: T24, 4H3697-AA; assay: two-hybrid library CCmax; settings: mean of both orientations
T24 chain: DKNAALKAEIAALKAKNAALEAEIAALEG

4H3753-AA = molecular target: T25, 4H3753-AA; assay: two-hybrid library CCmax; settings: mean of both orientations
T25 chain: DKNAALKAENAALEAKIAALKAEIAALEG

4H376-AA = molecular target: T26, 4H376-AA; assay: two-hybrid library CCmax; settings: mean of both orientations
T26 chain: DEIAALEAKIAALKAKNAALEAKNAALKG

4H3865-AA = molecular target: T27, 4H3865-AA; assay: two-hybrid library CCmax; settings: mean of both orientations
T27 chain: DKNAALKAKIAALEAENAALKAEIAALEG

4H406-AA = molecular target: T28, 4H406-AA; assay: two-hybrid library CCmax; settings: mean of both orientations
T28 chain: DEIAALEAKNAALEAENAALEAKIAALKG

4H458-AA = molecular target: T29, 4H458-AA; assay: two-hybrid library CCmax; settings: mean of both orientations
T29 chain: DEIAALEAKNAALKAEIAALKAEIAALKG

4H485-AA = molecular target: T30, 4H485-AA; assay: two-hybrid library CCmax; settings: mean of both orientations
T30 chain: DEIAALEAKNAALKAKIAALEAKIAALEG

4H536-AA = molecular target: T31, 4H536-AA; assay: two-hybrid library CCmax; settings: mean of both orientations
T31 chain: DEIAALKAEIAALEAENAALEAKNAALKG

4H570-AA = molecular target: T32, 4H570-AA; assay: two-hybrid library CCmax; settings: mean of both orientations
T32 chain: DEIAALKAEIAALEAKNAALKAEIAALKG

4H629-AA = molecular target: T33, 4H629-AA; assay: two-hybrid library CCmax; settings: mean of both orientations
T33 chain: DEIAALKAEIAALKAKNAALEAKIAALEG

4H688-AA = molecular target: T34, 4H688-AA; assay: two-hybrid library CCmax; settings: mean of both orientations
T34 chain: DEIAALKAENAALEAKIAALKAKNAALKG

4H710-AA = molecular target: T35, 4H710-AA; assay: two-hybrid library CCmax; settings: mean of both orientations
T35 chain: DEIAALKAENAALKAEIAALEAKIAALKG

4H745-AA = molecular target: T36, 4H745-AA; assay: two-hybrid library CCmax; settings: mean of both orientations
T36 chain: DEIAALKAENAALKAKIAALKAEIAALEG

4H797-AA = molecular target: T37, 4H797-AA; assay: two-hybrid library CCmax; settings: mean of both orientations
T37 chain: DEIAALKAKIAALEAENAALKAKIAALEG

4H850-AA = molecular target: T38, 4H850-AA; assay: two-hybrid library CCmax; settings: mean of both orientations
T38 chain: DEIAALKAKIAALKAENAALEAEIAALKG

4H891-AA = molecular target: T39, 4H891-AA; assay: two-hybrid library CCmax; settings: mean of both orientations
T39 chain: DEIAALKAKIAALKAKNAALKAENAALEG

4H909-AA = molecular target: T40, 4H909-AA; assay: two-hybrid library CCmax; settings: mean of both orientations
T40 chain: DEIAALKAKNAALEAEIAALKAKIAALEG

4H930-AA = molecular target: T41, 4H930-AA; assay: two-hybrid library CCmax; settings: mean of both orientations
T41 chain: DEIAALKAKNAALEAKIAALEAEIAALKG

4H94-AA = molecular target: T42, 4H94-AA; assay: two-hybrid library CCmax; settings: mean of both orientations
T42 chain: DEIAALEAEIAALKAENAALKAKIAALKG

4H963-AA = molecular target: T43, 4H963-AA; assay: two-hybrid library CCmax; settings: mean of both orientations
T43 chain: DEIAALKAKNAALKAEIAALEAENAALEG

4H346-bN = molecular target: T44, 4H346-bN; assay: two-hybrid library CCNG1
T44 chain: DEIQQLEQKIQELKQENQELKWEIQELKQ

4H370-bA = molecular target: T45, 4H370-bA; assay: two-hybrid library CCNG1
T45 chain: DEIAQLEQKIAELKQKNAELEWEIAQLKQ

4H3926-bN = molecular target: T46, 4H3926-bN; assay: two-hybrid library CCNG1
T46 chain: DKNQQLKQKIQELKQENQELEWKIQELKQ

4H4073-bN = molecular target: T47, 4H4073-bN; assay: two-hybrid library CCNG1
T47 chain: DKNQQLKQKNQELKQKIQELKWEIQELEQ

4H457-bN = molecular target: T48, 4H457-bN; assay: two-hybrid library CCNG1
T48 chain: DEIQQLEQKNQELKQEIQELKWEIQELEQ

4H575-bN = molecular target: T49, 4H575-bN; assay: two-hybrid library CCNG1
T49 chain: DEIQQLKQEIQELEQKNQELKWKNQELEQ

4H683-bN = molecular target: T50, 4H683-bN; assay: two-hybrid library CCNG1
T50 chain: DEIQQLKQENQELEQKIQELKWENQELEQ

4H72-bH = molecular target: T51, 4H72-bH; assay: two-hybrid library CCNG1
T51 chain: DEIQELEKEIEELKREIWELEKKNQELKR

4H754-bN = molecular target: T52, 4H754-bN; assay: two-hybrid library CCNG1
T52 chain: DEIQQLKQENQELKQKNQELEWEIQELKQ

4H780-bN = molecular target: T53, 4H780-bN; assay: two-hybrid library CCNG1
T53 chain: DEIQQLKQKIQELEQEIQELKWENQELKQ

4H797-bN = molecular target: T54, 4H797-bN; assay: two-hybrid library CCNG1
T54 chain: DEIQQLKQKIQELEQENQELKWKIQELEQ

4H855-bN = molecular target: T55, 4H855-bN; assay: two-hybrid library CCNG1
T55 chain: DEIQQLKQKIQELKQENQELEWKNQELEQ

4H918-bN = molecular target: T56, 4H918-bN; assay: two-hybrid library CCNG1
T56 chain: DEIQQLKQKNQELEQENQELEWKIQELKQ

4H953-bN = molecular target: T57, 4H953-bN; assay: two-hybrid library CCNG1
T57 chain: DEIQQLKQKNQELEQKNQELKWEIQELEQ

4H968-bN = molecular target: T58, 4H968-bN; assay: two-hybrid library CCNG1
T58 chain: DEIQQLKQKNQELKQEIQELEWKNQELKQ

DKAAALKAEAAALEAELAAEEAKNAALKG [APC3265-AA]
interaction score (APC3265-AA): -1.08
interaction score (APC3323-AA): -1.79
interaction score (APC3354-AA): -1.86
interaction score (APC3881-AA): -1.45
interaction score (APC4100-AA): -1.05
interaction score (APC4336-AA): -1.54
interaction score (APC5009-AA): -1.45
interaction score (APC542-AA): -1.56
interaction score (APC5531-AA): -1.82
interaction score (APC6088-AA): -1.89
interaction score (APC7524-AA): -1.43
interaction score (APC8401-AA): -1.36
interaction score (APC8516-AA): -1.33
interaction score (APC9141-AA): -1.63
interaction score (APC9182-AA): -1.78
interaction score (APC9291-AA): -1.49
interaction score (APC9806-AA): -1.38

DKNAALEAKIAALEAKNAALEAKIAALEG [4H3381-AA]
interaction score (4H3381-AA): 0.71
interaction score (4H3395-AA): -1.66
interaction score (4H3410-AA): -1.09
interaction score (4H347-AA): -1.55
interaction score (4H3493-AA): -1.77
interaction score (4H3590-AA): -1.02
interaction score (4H3697-AA): -1.45
interaction score (4H3753-AA): -1.71
interaction score (4H376-AA): -1.55
interaction score (4H3865-AA): -1.52
interaction score (4H406-AA): -1.15
interaction score (4H458-AA): -1.53
interaction score (4H485-AA): -0.941
interaction score (4H536-AA): -1.65
interaction score (4H570-AA): -1.34
interaction score (4H629-AA): -1.4
interaction score (4H688-AA): -1.36
interaction score (4H710-AA): -1.49
interaction score (4H745-AA): -1.6
interaction score (4H797-AA): -1.57
interaction score (4H850-AA): -1.85
interaction score (4H891-AA): -1.56
interaction score (4H909-AA): -1.66
interaction score (4H930-AA): -1.38
interaction score (4H94-AA): -1.76
interaction score (4H963-AA): -2.17

DEIQQLEQKIQELKQENQELKWEIQELKQ [4H346-bN]
interaction score (4H346-bN): 1.02
interaction score (4H370-bA): 0.693
interaction score (4H3926-bN): 1.53
interaction score (4H4073-bN): -0.58
interaction score (4H457-bN): -0.931
interaction score (4H575-bN): -0.652
interaction score (4H683-bN): 0.0158
interaction score (4H72-bH): 0.0876
interaction score (4H754-bN): -0.573
interaction score (4H780-bN): 0.0007
interaction score (4H797-bN): -0.125
interaction score (4H855-bN): -0.517
interaction score (4H918-bN): -0.654
interaction score (4H953-bN): -0.533
interaction score (4H968-bN): -0.647
